Test [1] has as its target Im9 (Escherichia coli) (UniProt P13479). The settings on record: cited from earlier work.
Test [2] concerns the target DNase domain of colicin E9, E9 (S3C) (E. coli). As to the kind of experiment: dynamic force spectroscopy (AFM).

What is called Kd is a measure of binding affinity in units of concentration.

Regarding “Colicin E9 DNase domain (from UniProt P09883)”, the dissociation constant Kd in test [1] is 0.016 pM.

B1: Im2 (D33A), pulled from residue 81 (natural protein)
chain: MELKHSISDYTEAEFLEFVKKIARAEGATEEDANKLVREFERLTEHPDGSDLIYYPRDDREDSPEGIVKEIKEWRAANGKCGFKQG
For the molecule B1, the k0F off (outer barrier) in test [2] came to 7.6 s⁻¹.

The values above are taken from article PMC3576412.
